Article PMC5582858, “The yeast kinesin-5 Cin8 interacts with the microtubule in a noncanonical manner” (The Journal of Biological Chemistry, 2017)

Key:
[1] = biological target: T1, Subtilisin-treated microtubules (lacking the C-terminal tails of α- and β-tubulin) (bovine, UniProt Q6B856 1-445, Purified bovine brain tubulin is an isotype mixture; the representative isotypes alpha-1B and beta-2B are assumed, as the paper states none. Cleavage limits are not given; the conventional major sub); assay: co-sedimentation; 2 μM kinesin, 0–4 μM paclitaxel-stabilised microtubules, no added nucleotide, high ionic strength (88 mM; ATPase buffer with 75 mM KCl), 298 K, 100,000 × g 30 min; supernatant and pellet by SDS-PAGE; apparent constants, fit to Equation 3; conditions: both partners purified
[2] = biological target: T1, Subtilisin-treated microtubules …; assay: co-sedimentation; 2 μM kinesin, 0–4 μM paclitaxel-stabilised microtubules, no added nucleotide, low ionic strength (21 mM; ATPase buffer with 7.5 mM KCl), 298 K, 100,000 × g 30 min; supernatant and pellet by SDS-PAGE; apparent constants, fit to Equation 3; conditions: both partners purified

T1 sequence (chain, as listed by the source, chain 1 of 2): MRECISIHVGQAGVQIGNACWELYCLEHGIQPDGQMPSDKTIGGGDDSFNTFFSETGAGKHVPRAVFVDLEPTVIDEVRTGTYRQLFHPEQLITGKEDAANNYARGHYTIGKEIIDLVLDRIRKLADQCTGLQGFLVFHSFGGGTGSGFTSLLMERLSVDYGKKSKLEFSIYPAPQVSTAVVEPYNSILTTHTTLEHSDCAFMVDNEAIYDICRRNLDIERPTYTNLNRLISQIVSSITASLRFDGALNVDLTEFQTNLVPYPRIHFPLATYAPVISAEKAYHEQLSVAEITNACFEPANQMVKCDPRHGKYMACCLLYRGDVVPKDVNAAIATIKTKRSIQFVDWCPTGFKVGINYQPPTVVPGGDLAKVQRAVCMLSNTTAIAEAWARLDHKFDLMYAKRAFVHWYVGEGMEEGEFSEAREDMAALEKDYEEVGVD
T1 sequence (Q6B856 1-433, chain 2 of 2): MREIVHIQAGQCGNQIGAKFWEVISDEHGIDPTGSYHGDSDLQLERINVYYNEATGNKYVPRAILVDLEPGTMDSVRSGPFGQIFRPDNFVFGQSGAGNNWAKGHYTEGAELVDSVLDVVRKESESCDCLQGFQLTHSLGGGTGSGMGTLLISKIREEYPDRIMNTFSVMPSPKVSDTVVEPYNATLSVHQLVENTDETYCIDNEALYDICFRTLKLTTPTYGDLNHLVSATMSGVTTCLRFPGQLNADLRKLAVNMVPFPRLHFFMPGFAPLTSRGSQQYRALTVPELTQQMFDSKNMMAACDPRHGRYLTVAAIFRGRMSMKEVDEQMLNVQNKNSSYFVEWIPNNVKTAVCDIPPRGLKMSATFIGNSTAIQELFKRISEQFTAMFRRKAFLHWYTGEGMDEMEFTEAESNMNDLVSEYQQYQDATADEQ

stoichiometry N [1]: 2.2 ± 0.2
stoichiometry N [2]: 5.4 ± 0.4
B1: Cin8-trx (Cin8 motor domain, residues 70–535, fused to N-terminal thioredoxin (TrxA), His6, TEV cleavage and Arg9 tags) (domain or fragment, S. cerevisiae, UniProt P27895 70-535, looked up)
chain: ISINTTGDTGITAQMNAKRYTVDKVFGPGASQDLIFDEVAGPLFQDFIKGYNCTVLVYGMTSTGKTYTMTGDEKLYNGELSDAAGIIPRVLLKLFDTLELQQNDYVVKCSFIELYNEELKDLLDSNSNGSSNTGFDGQFMKKLRIFDSSTANNTTSNSASSSRSNSRNSSPRSLNDLTPKAALLRKRLRTKSLPNTIKQQYQQQQAVNSRNNSSSNSGSTTNNASSNTNTNNGQRSSMAPNDQTNGIYIQNLQEFHITNAMEGLNLLQKGLKHRQVASTKMNDFSSRSHTIFTITLYKKHQDELFRISKMNLVDLAGSENINRSGALNQRAKEAGSINQSLLTLGRVINALVDKSGHIPFRESKLTRLLQDSLGGNTKTALIATISPAKVTSEETCSTLEYASKAKNIKNKPQLGSFIMKDILVKNITMELAKIKSDLLSTKSKEGIYMSQDHYKNLNSDLESYKN
notes: Kinesin-5 Cin8, S. cerevisiae, motor domain, residues 70–535; Expected mass 67.3 kDa; source: E. coli B834(DE3) with pRILP, purified (SP-Sepharose, nickel-nitrilotriacetic acid, Sephadex G-25); not shown: thioredoxin (TrxA), N-terminal, kept; His6, N-terminal, kept; TEV cleavage tag, N-terminal, kept; Arg9, N-terminal, kept
